Source: patent publication US20230212304A1

What was measured:
[1] = target: cynomolgus monkey CTLA4-his protein (Acro biosystems, Cat#CT4-C5227) (cynomolgus monkey) (UniProt G7PL88); experiment: SPR, Biacore T200; benchmark on Protein G chip, CTLA4-his as analyte
[2] = target: cynomolgus monkey CTLA4-his protein (Acro biosystems, Cat#CT4-C5227) (cynomolgus monkey) (UniProt G7PL88); experiment: SPR, Biacore; antibody captured on anti-human IgG CM5 chip, CTLA4-his as analyte

cynomolgus monkey CTLA4-his protein (Acro biosystems, Cat#CT4-C5227) (cynomolgus monkey), sequence (G7PL88 entry or part of it): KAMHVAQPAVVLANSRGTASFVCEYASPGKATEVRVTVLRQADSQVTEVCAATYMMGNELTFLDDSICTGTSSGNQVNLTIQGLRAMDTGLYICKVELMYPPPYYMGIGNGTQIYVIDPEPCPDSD

Kd [1]: 2.97 nM
Kd [2]: 2.2 nM
Substance: Yervoy® (Bristol-Myers Squibb Co, Cat# NDC: 0003-2327-11) (antibody)
